Tests used:
[1] = target: Actin, cytoplasmic 1 (human) (UniProt P60709); test: PIF affinity column + LC-MS/MS, CD8+ cell lysate
[2] = target: Cartilage oligomeric matrix protein (human) (UniProt P49747); test: PIF affinity column + LC-MS/MS, CD8+ cell lysate
[3] = target: Cofilin-1 (human) (UniProt P23528); test: PIF affinity column + LC-MS/MS, CD8+ cell lysate
[4] = target: Hepatoma-derived growth factor (human) (UniProt P51858); test: PIF affinity column + LC-MS/MS, CD8+ cell lysate
[5] = target: Isoform 2 of Protein SET (human) (UniProt Q01105); test: PIF affinity column + LC-MS/MS, CD8+ cell lysate
[6] = target: Nuclease-sensitive element-binding protein 1 (Fragment) (human) (UniProt P67809); test: PIF affinity column + LC-MS/MS, CD8+ cell lysate
[7] = target: Nucleolin (human) (UniProt P19338); test: PIF affinity column + LC-MS/MS, CD8+ cell lysate
[8] = target: Serine/arginine-rich-splicing factor 1 (human) (UniProt Q07955); test: PIF affinity column + LC-MS/MS, CD8+ cell lysate
[9] = target: Serum albumin (human) (UniProt P02768); test: PIF affinity column + LC-MS/MS, CD8+ cell lysate
[10] = target: Talin-1 (human) (UniProt Q9Y490); test: PIF affinity column + LC-MS/MS, CD8+ cell lysate
[11] = target: Thymosin alpha-1 (human) (UniProt P06454); test: PIF affinity column + LC-MS/MS, CD8+ cell lysate
[12] = target: Tubulin alpha-1C chain (human) (UniProt Q9BQE3); test: PIF affinity column + LC-MS/MS, CD8+ cell lysate
[13] = target: 14-3-3 protein eta (human) (UniProt Q04917); test: PIF affinity column + LC-MS/MS, CD14+ cell lysate
[14] = target: 14-3-3 protein zeta/delta (human) (UniProt P63104); test: PIF affinity column + LC-MS/MS, CD14+ cell lysate
[15] = target: Annexin A1 (human) (UniProt P04083); test: PIF affinity column + LC-MS/MS, CD14+ cell lysate
[16] = target: Bridging integrator 2 (human) (UniProt Q9UBW5); test: PIF affinity column + LC-MS/MS, CD14+ cell lysate
[17] = target: Coronin-1A (human) (UniProt P31146); test: PIF affinity column + LC-MS/MS, CD14+ cell lysate
[18] = target: Gelsolin (human) (UniProt P06396); test: PIF affinity column + LC-MS/MS, CD14+ cell lysate
[19] = target: Hornerin (human) (UniProt Q86YZ3); test: PIF affinity column + LC-MS/MS, CD14+ cell lysate
[20] = target: Isoform 2 of Heat shock protein HSP 90-alpha (human) (UniProt P07900); test: PIF affinity column + LC-MS/MS, CD14+ cell lysate
[21] = target: Isoform SV of 14-3-3 protein epsilon (human) (UniProt P62258); test: PIF affinity column + LC-MS/MS, CD14+ cell lysate
[22] = target: Lymphocyte-specific protein 1 (human) (UniProt P33241); test: PIF affinity column + LC-MS/MS, CD14+ cell lysate
[23] = target: Nuclear autoantigenic sperm protein (human) (UniProt P49321); test: PIF affinity column + LC-MS/MS, CD14+ cell lysate
[24] = target: Plastin-2 (human) (UniProt P13796); test: PIF affinity column + LC-MS/MS, CD14+ cell lysate
[25] = target: Talin-1 (human) (UniProt Q9Y490); test: PIF affinity column + LC-MS/MS, CD14+ cell lysate
[26] = target: Thrombospondin-1 (human) (UniProt P07996); test: PIF affinity column + LC-MS/MS, CD14+ cell lysate
[27] = target: Thymosin alpha-1 (human) (UniProt P06454); test: PIF affinity column + LC-MS/MS, CD14+ cell lysate
[28] = target: Tropomyosin alpha-3 chain (human) (UniProt P06753); test: PIF affinity column + LC-MS/MS, CD14+ cell lysate
[29] = target: Vimentin (human) (UniProt P08670); test: PIF affinity column + LC-MS/MS, CD14+ cell lysate

Sequence of Annexin A1 (human) (P04083 2-346 limits assumed): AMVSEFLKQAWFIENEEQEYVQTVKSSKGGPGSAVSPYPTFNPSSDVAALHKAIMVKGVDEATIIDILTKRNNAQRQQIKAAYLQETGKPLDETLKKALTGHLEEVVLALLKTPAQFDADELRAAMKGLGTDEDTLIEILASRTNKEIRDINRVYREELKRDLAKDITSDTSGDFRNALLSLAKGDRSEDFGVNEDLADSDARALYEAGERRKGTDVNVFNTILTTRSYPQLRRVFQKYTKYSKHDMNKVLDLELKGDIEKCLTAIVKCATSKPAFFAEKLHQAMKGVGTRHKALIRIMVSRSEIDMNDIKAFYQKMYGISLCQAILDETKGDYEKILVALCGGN
Sequence of Hornerin (human) (Q86YZ3 whole entry, canonical isoform): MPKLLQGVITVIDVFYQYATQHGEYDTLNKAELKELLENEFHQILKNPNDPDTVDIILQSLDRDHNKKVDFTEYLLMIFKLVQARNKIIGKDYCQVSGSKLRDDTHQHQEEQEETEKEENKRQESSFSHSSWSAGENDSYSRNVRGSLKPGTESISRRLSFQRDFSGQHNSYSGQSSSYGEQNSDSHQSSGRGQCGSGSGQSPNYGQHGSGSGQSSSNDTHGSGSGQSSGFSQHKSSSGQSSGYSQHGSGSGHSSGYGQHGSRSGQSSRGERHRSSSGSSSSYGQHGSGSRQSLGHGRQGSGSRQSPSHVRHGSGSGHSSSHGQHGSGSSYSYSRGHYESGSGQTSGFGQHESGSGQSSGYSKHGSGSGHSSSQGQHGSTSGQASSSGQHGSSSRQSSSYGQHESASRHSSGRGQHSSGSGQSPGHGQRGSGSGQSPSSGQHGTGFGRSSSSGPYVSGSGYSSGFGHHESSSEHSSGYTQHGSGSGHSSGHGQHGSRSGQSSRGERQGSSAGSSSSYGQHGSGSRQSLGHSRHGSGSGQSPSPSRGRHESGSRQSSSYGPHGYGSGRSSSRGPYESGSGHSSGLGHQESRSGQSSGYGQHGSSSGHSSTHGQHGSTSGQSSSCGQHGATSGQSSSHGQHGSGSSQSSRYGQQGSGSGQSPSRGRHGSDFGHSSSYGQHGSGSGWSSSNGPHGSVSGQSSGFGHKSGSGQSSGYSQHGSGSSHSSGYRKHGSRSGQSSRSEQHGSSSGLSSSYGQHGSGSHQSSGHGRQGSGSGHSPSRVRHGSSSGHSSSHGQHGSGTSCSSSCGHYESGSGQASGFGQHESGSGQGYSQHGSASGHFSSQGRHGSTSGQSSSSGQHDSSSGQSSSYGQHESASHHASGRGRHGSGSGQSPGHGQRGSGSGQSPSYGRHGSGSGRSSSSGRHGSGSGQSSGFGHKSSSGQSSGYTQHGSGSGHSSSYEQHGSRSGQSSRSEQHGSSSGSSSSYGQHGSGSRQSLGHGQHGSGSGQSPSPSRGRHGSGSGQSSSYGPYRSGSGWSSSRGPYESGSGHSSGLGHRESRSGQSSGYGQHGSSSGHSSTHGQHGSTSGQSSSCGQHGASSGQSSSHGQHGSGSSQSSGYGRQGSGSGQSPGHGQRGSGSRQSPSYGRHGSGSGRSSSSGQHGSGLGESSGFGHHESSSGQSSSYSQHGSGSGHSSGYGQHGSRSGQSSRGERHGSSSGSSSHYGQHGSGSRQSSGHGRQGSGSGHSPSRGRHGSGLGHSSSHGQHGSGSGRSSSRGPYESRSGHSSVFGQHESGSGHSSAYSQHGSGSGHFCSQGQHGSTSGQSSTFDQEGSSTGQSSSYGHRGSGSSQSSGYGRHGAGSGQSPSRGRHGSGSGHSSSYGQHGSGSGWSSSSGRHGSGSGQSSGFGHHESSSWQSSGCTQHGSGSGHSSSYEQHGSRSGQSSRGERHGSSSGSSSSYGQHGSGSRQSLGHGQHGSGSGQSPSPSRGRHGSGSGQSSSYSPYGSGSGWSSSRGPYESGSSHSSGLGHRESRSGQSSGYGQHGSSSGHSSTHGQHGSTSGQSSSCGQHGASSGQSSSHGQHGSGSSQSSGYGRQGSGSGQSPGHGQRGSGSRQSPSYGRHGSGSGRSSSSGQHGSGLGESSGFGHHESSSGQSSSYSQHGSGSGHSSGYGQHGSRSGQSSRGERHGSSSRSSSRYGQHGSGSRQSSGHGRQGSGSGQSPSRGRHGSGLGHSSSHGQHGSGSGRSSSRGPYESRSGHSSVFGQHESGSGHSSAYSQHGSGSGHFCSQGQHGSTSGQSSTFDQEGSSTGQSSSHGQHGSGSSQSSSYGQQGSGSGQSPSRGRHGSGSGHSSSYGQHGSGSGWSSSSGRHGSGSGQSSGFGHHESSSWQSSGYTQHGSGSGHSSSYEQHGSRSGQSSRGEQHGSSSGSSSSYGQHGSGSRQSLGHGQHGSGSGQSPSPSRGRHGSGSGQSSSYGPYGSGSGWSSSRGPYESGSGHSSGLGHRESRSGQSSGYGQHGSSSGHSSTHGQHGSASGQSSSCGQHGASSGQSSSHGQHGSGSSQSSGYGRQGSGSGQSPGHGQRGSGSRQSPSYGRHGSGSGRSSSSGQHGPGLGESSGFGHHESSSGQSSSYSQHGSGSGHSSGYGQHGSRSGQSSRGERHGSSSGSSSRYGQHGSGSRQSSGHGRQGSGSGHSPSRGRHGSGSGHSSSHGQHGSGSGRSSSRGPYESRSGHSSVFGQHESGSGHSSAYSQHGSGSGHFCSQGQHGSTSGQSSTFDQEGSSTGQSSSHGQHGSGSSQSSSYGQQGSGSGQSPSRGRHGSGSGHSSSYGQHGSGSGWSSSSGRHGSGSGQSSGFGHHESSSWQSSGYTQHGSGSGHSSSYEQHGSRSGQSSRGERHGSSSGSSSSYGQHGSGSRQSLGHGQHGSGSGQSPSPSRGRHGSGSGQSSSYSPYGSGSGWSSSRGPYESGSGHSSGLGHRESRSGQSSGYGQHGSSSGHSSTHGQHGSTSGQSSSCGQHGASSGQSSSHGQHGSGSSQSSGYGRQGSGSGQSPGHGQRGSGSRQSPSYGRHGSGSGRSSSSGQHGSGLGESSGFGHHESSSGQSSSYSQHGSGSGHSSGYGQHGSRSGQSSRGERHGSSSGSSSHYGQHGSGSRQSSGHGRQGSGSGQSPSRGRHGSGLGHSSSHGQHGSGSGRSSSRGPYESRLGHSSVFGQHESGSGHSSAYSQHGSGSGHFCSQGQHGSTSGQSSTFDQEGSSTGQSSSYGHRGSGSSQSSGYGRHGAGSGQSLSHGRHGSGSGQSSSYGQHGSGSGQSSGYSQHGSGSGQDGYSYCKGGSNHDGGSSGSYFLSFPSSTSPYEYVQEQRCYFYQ
Sequence of 14-3-3 protein zeta/delta (human) (P63104 whole entry, stated change not applied): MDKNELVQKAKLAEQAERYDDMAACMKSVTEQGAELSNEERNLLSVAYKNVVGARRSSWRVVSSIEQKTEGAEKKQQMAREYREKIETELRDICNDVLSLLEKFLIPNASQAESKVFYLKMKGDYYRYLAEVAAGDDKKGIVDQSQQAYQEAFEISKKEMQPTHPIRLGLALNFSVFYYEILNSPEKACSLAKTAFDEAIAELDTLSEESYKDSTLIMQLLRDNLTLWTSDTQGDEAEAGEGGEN
Sequence of Nuclear autoantigenic sperm protein (human) (P49321 2-788 limits assumed): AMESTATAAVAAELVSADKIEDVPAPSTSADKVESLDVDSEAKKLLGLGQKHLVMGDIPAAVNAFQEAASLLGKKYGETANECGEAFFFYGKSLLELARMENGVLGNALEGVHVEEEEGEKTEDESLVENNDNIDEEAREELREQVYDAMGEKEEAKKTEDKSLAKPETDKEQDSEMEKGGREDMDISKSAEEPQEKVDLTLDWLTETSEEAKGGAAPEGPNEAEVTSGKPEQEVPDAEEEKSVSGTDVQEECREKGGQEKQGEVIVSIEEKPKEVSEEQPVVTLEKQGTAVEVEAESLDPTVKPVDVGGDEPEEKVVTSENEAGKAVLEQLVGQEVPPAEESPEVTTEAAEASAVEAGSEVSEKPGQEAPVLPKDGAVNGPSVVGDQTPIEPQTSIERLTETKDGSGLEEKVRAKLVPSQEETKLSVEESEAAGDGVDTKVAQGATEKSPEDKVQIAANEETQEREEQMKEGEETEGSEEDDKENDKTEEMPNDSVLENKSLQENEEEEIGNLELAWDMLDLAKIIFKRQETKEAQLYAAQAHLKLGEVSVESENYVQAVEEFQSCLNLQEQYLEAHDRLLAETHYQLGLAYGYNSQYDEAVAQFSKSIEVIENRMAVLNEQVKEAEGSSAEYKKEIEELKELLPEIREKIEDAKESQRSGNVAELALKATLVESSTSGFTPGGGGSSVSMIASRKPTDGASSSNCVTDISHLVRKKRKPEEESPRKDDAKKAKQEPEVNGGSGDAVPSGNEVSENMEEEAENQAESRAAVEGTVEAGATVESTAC
Sequence of Thymosin alpha-1 (human) (P06454 other isoform, or with tags, fused parts or gaps limits assumed): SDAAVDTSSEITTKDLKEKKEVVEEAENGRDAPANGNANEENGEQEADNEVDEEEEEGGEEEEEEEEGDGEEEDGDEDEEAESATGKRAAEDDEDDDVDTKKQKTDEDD
Sequence of 14-3-3 protein eta (human) (Q04917 2-246 limits assumed): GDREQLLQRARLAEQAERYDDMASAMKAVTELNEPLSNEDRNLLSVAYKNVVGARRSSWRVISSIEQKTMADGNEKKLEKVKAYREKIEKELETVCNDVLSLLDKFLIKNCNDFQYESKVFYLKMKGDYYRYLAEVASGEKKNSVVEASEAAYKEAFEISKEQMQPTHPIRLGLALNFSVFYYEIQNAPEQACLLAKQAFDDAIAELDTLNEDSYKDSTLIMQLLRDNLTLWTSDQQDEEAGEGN
Sequence of Cofilin-1 (human) (P23528 2-166 limits assumed): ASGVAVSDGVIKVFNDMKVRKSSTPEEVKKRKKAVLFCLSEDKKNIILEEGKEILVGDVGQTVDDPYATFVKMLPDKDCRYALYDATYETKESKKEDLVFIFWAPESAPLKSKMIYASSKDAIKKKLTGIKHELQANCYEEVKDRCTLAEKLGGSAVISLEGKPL
Sequence of Isoform 2 of Protein SET (human) (Q01105 other isoform, or with tags, fused parts or gaps limits assumed): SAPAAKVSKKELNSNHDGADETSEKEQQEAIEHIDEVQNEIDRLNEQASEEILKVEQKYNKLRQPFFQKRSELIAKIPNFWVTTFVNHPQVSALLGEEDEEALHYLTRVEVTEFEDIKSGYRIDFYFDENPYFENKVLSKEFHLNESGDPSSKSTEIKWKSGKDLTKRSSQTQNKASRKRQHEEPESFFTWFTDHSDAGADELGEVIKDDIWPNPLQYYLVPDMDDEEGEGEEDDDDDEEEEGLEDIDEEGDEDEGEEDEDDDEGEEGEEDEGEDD

Substance: PIF-resin (PIF15 affinity ligand on agarose) (peptide)
- Ave [1]: 3
- Inject 1 [1]: 3
- Inject 2 [1]: 3
- Inject 3 [1]: 3
- Ave [2]: 4
- Inject 1 [2]: 4
- Inject 2 [2]: 4
- Inject 3 [2]: 5
- Ave [3]: 1
- Inject 1 [3]: 1
- Inject 2 [3]: 1
- Inject 3 [3]: 1
- Ave [4]: 1
- Inject 1 [4]: 1
- Inject 2 [4]: 1
- Inject 3 [4]: 1
- Ave [5]: 1
- Inject 1 [5]: 1
- Inject 2 [5]: 1
- Inject 3 [5]: 1
- Ave [6]: 1
- Inject 1 [6]: 1
- Inject 2 [6]: 1
- Inject 3 [6]: 1
- Ave [7]: 1
- Inject 1 [7]: 1
- Inject 2 [7]: 1
- Inject 3 [7]: 1
- Ave [8]: 1
- Inject 1 [8]: 1
- Inject 2 [8]: 1
- Inject 3 [8]: 1
- Inject 3 [9]: 8
- Ave [10]: 1
- Inject 1 [10]: 1
- Inject 2 [10]: 1
- Inject 3 [10]: 1
- Inject 3 [11]: 4
- Ave [12]: 1
- Inject 1 [12]: 1
- Inject 2 [12]: 1
- Inject 3 [12]: 1
- Ave [13]: 1
- Inject 1 [13]: 1
- Inject 2 [13]: 1
- Ave [14]: 4
- Inject 1 [14]: 4
- Inject 3 [14]: 4
- Ave [15]: 1
- Inject 1 [15]: 0
- Inject 2 [15]: 0
- Ave [16]: 1
- Inject 1 [16]: 1
- Inject 3 [16]: 0
- Inject 3 [17]: 1
- Inject 2 [18]: 1
- Inject 3 [18]: 1
- Ave [19]: 1
- Inject 1 [19]: 1
- Inject 2 [19]: 0
- Ave [20]: 1
- Inject 1 [20]: 1
- Inject 3 [20]: 1
- Inject 1 [21]: 4
- Inject 2 [21]: 4
- Inject 1 [22]: 4
- Inject 3 [22]: 1
- Ave [23]: 1
- Inject 2 [23]: 0
- Inject 3 [23]: 1
- Ave [24]: 1
- Inject 1 [24]: 1
- Inject 2 [24]: 1
- Inject 1 [25]: 5
- Inject 3 [25]: 8
- Inject 2 [26]: 5
- Inject 3 [26]: 8
- Ave [27]: 5
- Inject 1 [27]: 5
- Inject 2 [27]: 5
- Inject 3 [27]: 4
- Ave [28]: 4
- Inject 1 [28]: 4
- Inject 3 [28]: 5
- Ave [29]: 10
- Inject 1 [29]: 9
- Inject 2 [29]: 11
- Inject 3 [29]: 9

Source: patent publication US20230013244A1 (BioIncept, LLC, priority 2014, published 2023)
